Assay results taken from patent US20210238298A1.
One block for each binder: values may come before it.

Assays:
[1] = target: CD137 chimera 1550 (1407): human CD137 with mouse domains 1, 2A and 2B (aa 24-86), on FreeStyle 293-F cells (human; mouse) (UniProt P20334); experiment: flow cytometry, 293-F transfectants
[2] = target: CTLA-4 (BMS, Orencia) (human) (UniProt P16410); experiment: cell-based or functional assay
CTLA-4 (BMS, Orencia) (human), sequence (P16410 38-152 limits assumed): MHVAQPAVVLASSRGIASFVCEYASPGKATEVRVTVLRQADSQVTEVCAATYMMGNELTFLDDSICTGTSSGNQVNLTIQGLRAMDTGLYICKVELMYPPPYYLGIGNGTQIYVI

UniProt P20334, sequence (P20334 other isoform, or with tags, fused parts or gaps mutant limits assumed): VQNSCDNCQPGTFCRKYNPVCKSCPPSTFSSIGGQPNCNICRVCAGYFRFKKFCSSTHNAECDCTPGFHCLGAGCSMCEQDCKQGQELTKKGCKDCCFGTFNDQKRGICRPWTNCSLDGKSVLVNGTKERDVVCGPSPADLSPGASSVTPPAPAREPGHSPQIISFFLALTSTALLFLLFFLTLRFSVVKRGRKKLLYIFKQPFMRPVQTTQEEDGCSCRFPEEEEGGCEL

relative binding (MFI sample/isotype control, normalised to full-length human CD137) [1]: 0.07
B1: anti-CD137 antibody 1204/1205 (antibody, IgG1, V domains shown)
VH: EVQLLESGGGLVQPGGSLRLSCAASGFTFSSYYMGWVRQAPGKGLEWVSGIGSYYGYTGYADSVKGRFTISRDNSKNTLYLQMNSLRAEDTAVYYCARAYYDYNYYYAYFDYWGQGTLVTVSS
VL: DIQMTQSPSSLSASVGDRVTITCRASQSISSYLNWYQQKPGKAPKLLIYAASSLQSGVPSRFSGSGSGTDFTLTISSLQPEDFATYYCQQSVPHYPFTFGQGTKLEIK

Mean IL-2 level (pg/ml) induced at 1.5 nM (control) [2]: 1050 pg/mL
B2: 1756/1757 (isotype control antibody fused to the 1040 CTLA4 binding region) (protein, part only; not given: Isotype control antibody chains, part only)
chain: APLKIQAYFNETADLPCQFANSQNLSLSELVVFWQDQENLVLNEVYLGKERFDSVDSKYMGRTSFDSDSWTLRLHNLQIKDKGRYQCIIHHKKPTGMINIHQMNSELSVLA
